Target: thrombin (endogenous, in developing blood clots of mice) (mouse) (UniProt P19221)
Test: cell-based or functional assay

Chain of hirudin (P01050 whole entry): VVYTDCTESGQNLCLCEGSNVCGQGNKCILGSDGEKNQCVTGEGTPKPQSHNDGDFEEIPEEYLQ

Substance: hirudin (from UniProt P01050 1-65)
- inhibition of the Cy5/Cy7 ratio increase of … in tail clots of mice: > 90%

Source: US20130078188A1
